# Measurements taken from patent publication US20240425607A1 (COMPUGEN, published 2024).
# B1: ADI-71739 (antibody, V domains shown)
# VH: QLQLQESGPGLVKPSETLSLTCTVSGGSISSPDYPWGWIRQPPGKGLEWIGSIYYQGATYYNPSLKSRVTISVDTSKNQFSLKLSSVTAADTAVYYCARGPYRQLFDYWGQGTLVTVSS
# VL: DIQMTQSPSSVSASVGDRVTITCRASQGISSWLAWYQQKPGKAPKLLIYAASSLQSGVPSRFSGSGSGTDFTLTISSLQPEDFATYYCQQGSVFPYTFGGGTKVEIK
# B2: ADI-71739 Fab fragment (Fab, V domains shown)
# VH: QLQLQESGPGLVKPSETLSLTCTVSGGSISSPDYPWGWIRQPPGKGLEWIGSIYYQGATYYNPSLKSRVTISVDTSKNQFSLKLSSVTAADTAVYYCARGPYRQLFDYWGQGTLVTVSS
# VL: DIQMTQSPSSVSASVGDRVTITCRASQGISSWLAWYQQKPGKAPKLLIYAASSLQSGVPSRFSGSGSGTDFTLTISSLQPEDFATYYCQQGSVFPYTFGGGTKVEIK
# notes: Used for the Biacore measurement on mouse IL18BP-Fc; also called anti-IL18BP Fab
# B3: mouse IL-18 (ligand, UniProt P70380 36-192, looked up)
# chain: NFGRLHCTTAVIRNINDQVLFVDKRQPVFEDMTDIDQSASEPQTRLIIYMYKDSEVRGLAVTLSVKDSKMSTLSCKNKIISFEEMDPPENIDDIQSDLIFFQKRVPGHNKMEFESSLYEGHFLACQKEDDAFKLILKKKDENGDKSVMFTLTNLHQS
# notes: also called mIL-18; mouse IL-18 biotinylated (Sino Biological)
# Columns and labels:
# [1] = target: T1, cynomolgus monkey IL-18BP (construct not stated) (cynomolgus monkey); assay: KinExA (figure legend; the text prints 208 fM)
# T1 construct: also called cyno IL18BP; cyno IL-18BP
# [2] = target: T2, human IL-18BP (recombinant, construct not stated) (human, UniProt O95998 31-194); assay: KinExA, solution equilibrium
# T2 construct: also called hIL-18BP; human monomeric IL18BP
# T2 sequence: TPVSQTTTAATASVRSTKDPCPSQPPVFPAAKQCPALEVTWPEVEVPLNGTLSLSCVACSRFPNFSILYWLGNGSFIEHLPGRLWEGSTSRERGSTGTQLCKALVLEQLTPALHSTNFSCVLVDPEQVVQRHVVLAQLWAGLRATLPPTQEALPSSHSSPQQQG
# [3] = target: T1, cynomolgus monkey IL-18BP (construct …); assay: KinExA, solution equilibrium
# [4] = target: T3, mouse IL18-BP-Fc (mouse, UniProt Q9Z0M9 29-193, limits assumed); assay: Biacore T100; mouse IL18BP-Fc captured on anti-human Fc, Fab 300-2.21 nM in solution
# T3 construct: R&D cat; 122-BP is named for the AbD35328 SPR; also called mouse IL18-BP-Fc (cat. 122-BP, R&D); mouse IL18-BP Fc fusion protein
# T3 sequence (looked up): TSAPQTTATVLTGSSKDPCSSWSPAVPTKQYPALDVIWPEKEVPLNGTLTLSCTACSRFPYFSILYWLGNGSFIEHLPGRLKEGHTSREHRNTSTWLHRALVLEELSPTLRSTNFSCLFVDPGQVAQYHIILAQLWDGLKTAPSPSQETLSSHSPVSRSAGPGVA
# [5] = target: T4, mouse IL-18BP (construct not stated) (mouse, UniProt Q9Z0M9 29-193, limits assumed); assay: KinExA, solution equilibrium
# T4 construct: also called mIL18-BP
# T4 sequence (looked up): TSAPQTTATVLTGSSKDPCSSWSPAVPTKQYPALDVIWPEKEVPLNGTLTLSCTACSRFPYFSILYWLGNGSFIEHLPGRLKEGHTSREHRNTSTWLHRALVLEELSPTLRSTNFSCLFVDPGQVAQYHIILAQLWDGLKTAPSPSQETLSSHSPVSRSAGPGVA
binder,measurement,setting,value
B1,Kd,[1],0.209 pM
same,Kd,[2],~0.291 pM
same,Kd,[3],~0.208 pM
B2,Kd,[4],~4000 pM
B3,Kd,[5],~3.7 pM
